Laboratory results as given in PMC12720113, “The binding mechanism of a novel ferrous ion chelating peptide from chicken blood hemoglobin and the bioavailability of the chelate” (Food Chemistry: X, 2025).

Test system: Caco-2 cells
Experiment: Caco-2 cell viability assay (MTT)
Format: cell-based
Conditions: 24 h, 490 nm, means ± SEM
Method: Caco-2 cell viability assay was conducted on […]-Fe according to the method of [Wu et al. (2019)]. And lactoferrin was chosen as an experimental control. When the cell fusion rate was close to 80 %, the cells were dissociated and passaged using the trypsin-EDTA mixed digest. Cultivate the 23rd generation of cells in the logarithmic growth phase at 37 °C and 5 % CO₂ for 24 h. Then, a gradient concentration of […]-Fe and Ac-[…]-Fe was added to the wells of the experimental group, and all the samples were incubated for 24 h. After incubation, 20 μL of MTT reagent was added to each well. After 2 h of reaction, 150 μL of DMSO was added and agitated for 10 min. The absorbance values at 490 nm were measured to reflect cell activity levels. Cell relative activity (%) was calculated:(3) Relative cell viability%=As−Ab/Ac−Ab×100 where: As represents the absorbance value of the sample treatment, Ab represents the absorbance value without cells, and Ac represents the absorbance value without sample treatment.

B1: lactoferrin (protein, UniProt P24627 20-708, looked up)
Lactotransferrin: APRKNVRWCTISQPEWFKCRRWQWRMKKLGAPSITCVRRAFALECIRAIAEKKADAVTLDGGMVFEAGRDPYKLRPVAAEIYGTKESPQTHYYAVAVVKKGSNFQLDQLQGRKSCHTGLGRSAGWIIPMGILRPYLSWTESLEPLQGAVAKFFSASCVPCIDRQAYPNLCQLCKGEGENQCACSSREPYFGYSGAFKCLQDGAGDVAFVKETTVFENLPEKADRDQYELLCLNNSRAPVDAFKECHLAQVPSHAVVARSVDGKEDLIWKLLSKAQEKFGKNKSRSFQLFGSPPGQRDLLFKDSALGFLRIPSKVDSALYLGSRYLTTLKNLRETAEEVKARYTRVVWCAVGPEEQKKCQQWSQQSGQNVTCATASTTDDCIVLVLKGEADALNLDGGYIYTAGKCGLVPVLAENRKSSKHSSLDCVLRPTEGYLAVAVVKKANEGLTWNSLKDKKSCHTAVDRTAGWNIPMGLIVNQTGSCAFDEFFSQSCAPGADPKSRLCALCAGDDQGLDKCVPNSKEKYYGYTGAFRCLAEDVGDVAFVKNDTVWENTNGESTADWAKNLNREDFRLLCLDGTRKPVTEAQSCHLAVAPNHAVVSRSDRAAHVKQVLLHQQALFGKNGKNCPDKFCLFKSETKNLLFNDNTECLAKLGGRPTYEEYLGTEYVTAIANLKKCSTSPLLEACAFLTR
notes: conventional iron supplement, experimental control
Caco-2, 0.125 mg/mL
  Relative vitality of cells (%): 92.86 ± 1.03%
Caco-2, 0.25 mg/mL
  Relative vitality of cells (%): 81.43 ± 0.94%
Caco-2, 0.5 mg/mL
  Relative vitality of cells (%): 77.76 ± 1.27%
Caco-2, 1 mg/mL
  Relative vitality of cells (%): 74.83 ± 0.84%
Caco-2, 2 mg/mL
  Relative vitality of cells (%): 66.90 ± 1.42%
